Test results: paper PMC4357707 (Nucleic Acids Research, 2015)

What was measured:
Experiment in all cases: EMSA
HEN1-RHK389,397,477AAA = target: T1, HEN1-RHK389,397,477AAA (Arabidopsis thaliana, UniProt Q9C5Q8 1-942, R389A;H397A;K477A)
T1 sequence: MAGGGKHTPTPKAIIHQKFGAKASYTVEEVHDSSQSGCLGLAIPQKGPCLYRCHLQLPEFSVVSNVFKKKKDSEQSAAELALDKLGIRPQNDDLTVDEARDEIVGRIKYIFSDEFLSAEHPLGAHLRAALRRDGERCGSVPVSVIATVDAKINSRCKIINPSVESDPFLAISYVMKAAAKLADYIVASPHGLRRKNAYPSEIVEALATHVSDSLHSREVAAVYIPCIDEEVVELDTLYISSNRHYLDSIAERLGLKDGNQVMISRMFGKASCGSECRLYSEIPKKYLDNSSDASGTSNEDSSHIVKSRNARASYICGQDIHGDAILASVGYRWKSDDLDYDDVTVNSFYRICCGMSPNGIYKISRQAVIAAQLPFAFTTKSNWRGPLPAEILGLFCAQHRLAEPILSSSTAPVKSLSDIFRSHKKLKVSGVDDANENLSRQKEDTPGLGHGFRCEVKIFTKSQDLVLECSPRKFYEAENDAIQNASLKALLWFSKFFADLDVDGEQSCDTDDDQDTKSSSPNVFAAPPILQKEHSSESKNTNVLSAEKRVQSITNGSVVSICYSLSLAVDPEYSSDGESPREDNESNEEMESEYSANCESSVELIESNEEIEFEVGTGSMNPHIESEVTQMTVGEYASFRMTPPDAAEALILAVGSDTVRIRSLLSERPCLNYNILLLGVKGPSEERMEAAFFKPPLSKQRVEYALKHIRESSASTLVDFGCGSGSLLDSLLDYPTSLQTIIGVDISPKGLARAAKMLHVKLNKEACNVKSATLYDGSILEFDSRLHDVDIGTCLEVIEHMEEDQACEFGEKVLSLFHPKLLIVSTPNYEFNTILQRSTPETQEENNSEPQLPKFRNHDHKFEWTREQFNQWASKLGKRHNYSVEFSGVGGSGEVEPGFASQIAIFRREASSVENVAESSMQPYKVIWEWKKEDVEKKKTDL

HEN1 Δ38-45 = target: T2, HEN1 Δ38-45 (Arabidopsis thaliana, UniProt Q9C5Q8 1-37+=G+46-942, internal_change)
T2 sequence: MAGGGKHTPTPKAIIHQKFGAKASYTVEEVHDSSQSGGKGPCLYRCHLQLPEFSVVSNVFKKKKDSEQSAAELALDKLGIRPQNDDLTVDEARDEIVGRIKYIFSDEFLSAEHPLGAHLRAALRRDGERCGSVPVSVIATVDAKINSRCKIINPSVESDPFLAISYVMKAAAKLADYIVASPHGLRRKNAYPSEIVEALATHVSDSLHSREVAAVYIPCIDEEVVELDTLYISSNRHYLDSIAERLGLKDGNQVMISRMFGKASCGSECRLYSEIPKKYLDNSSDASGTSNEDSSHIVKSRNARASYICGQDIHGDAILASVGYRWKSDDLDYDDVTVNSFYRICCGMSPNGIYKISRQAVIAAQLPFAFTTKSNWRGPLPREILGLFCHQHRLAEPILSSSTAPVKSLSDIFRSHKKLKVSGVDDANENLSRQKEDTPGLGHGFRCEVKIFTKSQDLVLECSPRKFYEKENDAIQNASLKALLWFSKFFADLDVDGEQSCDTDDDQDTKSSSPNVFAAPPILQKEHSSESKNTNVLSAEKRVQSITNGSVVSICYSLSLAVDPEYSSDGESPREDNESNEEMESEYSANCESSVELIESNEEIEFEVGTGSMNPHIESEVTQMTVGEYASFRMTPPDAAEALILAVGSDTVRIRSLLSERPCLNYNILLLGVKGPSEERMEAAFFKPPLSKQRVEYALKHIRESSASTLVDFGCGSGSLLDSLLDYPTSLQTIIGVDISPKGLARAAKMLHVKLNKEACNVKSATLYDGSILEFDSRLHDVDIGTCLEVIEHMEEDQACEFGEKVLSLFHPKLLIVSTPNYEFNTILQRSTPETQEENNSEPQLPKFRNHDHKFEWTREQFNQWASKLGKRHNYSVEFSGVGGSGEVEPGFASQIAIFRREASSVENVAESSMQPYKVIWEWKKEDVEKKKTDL

HYL1 = target: T3, HYL1 (Arabidopsis thaliana, UniProt O04492 1-419)
T3 sequence: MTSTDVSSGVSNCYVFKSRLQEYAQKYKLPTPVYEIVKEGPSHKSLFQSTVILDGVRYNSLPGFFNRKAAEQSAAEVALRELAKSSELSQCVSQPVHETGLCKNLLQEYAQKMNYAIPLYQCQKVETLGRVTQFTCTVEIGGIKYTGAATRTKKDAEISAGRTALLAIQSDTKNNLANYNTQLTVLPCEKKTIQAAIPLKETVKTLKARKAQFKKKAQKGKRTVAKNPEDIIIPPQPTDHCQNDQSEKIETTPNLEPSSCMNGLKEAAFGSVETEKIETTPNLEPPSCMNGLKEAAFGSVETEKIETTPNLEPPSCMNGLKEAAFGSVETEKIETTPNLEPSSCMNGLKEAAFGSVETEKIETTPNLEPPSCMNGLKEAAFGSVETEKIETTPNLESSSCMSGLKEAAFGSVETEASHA

B1: miR173/miR173* (dsRNA)
RNA 1: UUCGCUUGCAGAGAGAAAUCAC
RNA 2: GAUUCUCUGUGUAAGCGAAAG
Kd (HEN1-RHK389,397,477AAA): 65 ± 12 nM | Kd (HEN1 Δ38-45): 0.79 ± 0.05 nM | binding result (HYL1): binds
